In paper doi:10.1101/2025.01.09.632085:

Target: thrombin (UniProt P00734;P00734 328-363;364-622)
Test: BLI

Question: For GGTTGGTGTGGTTGG (structured_DNA) [HD1], which Kd is on record?
Answer: 32 ± 4 nM
